The target in this test is T1, recombinant SUFU (UniProt Q9UMX1 1-484).
T1 sequence (looked up): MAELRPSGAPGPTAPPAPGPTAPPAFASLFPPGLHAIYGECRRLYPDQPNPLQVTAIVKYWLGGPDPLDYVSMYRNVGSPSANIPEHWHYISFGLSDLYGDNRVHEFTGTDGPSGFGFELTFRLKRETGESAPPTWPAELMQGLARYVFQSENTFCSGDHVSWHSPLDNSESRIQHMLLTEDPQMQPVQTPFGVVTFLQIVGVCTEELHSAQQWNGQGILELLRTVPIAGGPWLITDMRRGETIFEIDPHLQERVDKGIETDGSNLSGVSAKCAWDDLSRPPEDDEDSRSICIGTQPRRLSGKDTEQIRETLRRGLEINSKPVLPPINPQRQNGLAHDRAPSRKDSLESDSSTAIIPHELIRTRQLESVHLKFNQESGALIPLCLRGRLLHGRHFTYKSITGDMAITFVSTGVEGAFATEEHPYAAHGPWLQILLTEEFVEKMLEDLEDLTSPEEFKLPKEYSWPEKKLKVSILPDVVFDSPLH
Kind of test: SPR.

Our source for the Kd values is PMC11252808 (Proceedings of the National Academy of Sciences of the …, 2024).

Where no end group is shown, it is not given here. [ ]: non-standard residue; d: D form. pS = N[C@@H](COP(=O)(O)O)C(=O)O

B1: phosphorylated GLI3 peptide (phospho-GLI3^S313_(309–345)) (peptide, UniProt P10071 309-345, looked up)
peptide: MIRT[pS]PNSLVTILNNSRSSSSASGSYGHLSASAISPA
On to B1, for which the Kd turned out to be 5.08 µM.
